Test results: patent publication US8242083B2, “Kinase substrates” (PerkinElmer Health Sciences, Inc., priority 2008, dated 2012)

Experiments:
Format in all cases: biochemical
[1] = biological target: ABL [T315I] (ABL1) (Homo sapiens, UniProt P00519, T315I); experiment: TR-FRET kinase assay, ABL [T315I]; conditions: Kinase Concentration 0.5 nM; 50 nM ULight-labeled substrate, 200 micromolar ATP, 2 hours
Protocol: (§1) TR-FRET kinase assays are performed under standardized conditions: various individual kinases are incubated with 50 nM of kinase substrate BRB1 labeled with the TR-FRET acceptor dye ULight (PerkinElmer) and 200 micromolar ATP in 10 μL of kinase assay buffer (50 mM HEPES pH7.5, 10 mM MgCl2, 3 mM MnCl2, 1 mM EGTA, 2 mM DTT and 0.01% Tween-20) for 2 hours at room temperature. Reactions are stopped with EDTA, and anti-phospho-tyrosine antibodies (clone PT66) labeled with the TR-FRET europium chelate donor dye are added to a final concentration of 2 nM in a final volume of 20 μL. The TR-FRET signal emitted at 665 nm is read one hour after the addition of antibodies using a TR-FRET plate reader such as the Envision® Multilabel Plate reader (PerkinElmer). The emitted signal at 665 nm is proportional to the extent of peptide phosphorylation, Control reactions indicative of background are performed excluding ATP from the reaction.
(§2) Assay conditions are identical to those used described for FIG. 1.

[2] = biological target: ARG (Homo sapiens, UniProt P42684); experiment: TR-FRET kinase assay, ARG; conditions: Kinase Concentration 0.5 nM; 50 nM ULight-labeled substrate, 200 micromolar ATP, 2 hours
Protocol: as §1, §2

[3] = biological target: FER (Homo sapiens, UniProt P16591); experiment: TR-FRET kinase assay, FER; conditions: Kinase Concentration 0.25 nM; 50 nM ULight-labeled substrate, 200 micromolar ATP, 2 hours
Protocol: as §1, §2

[4] = biological target: FES (Homo sapiens, UniProt P07332); experiment: TR-FRET kinase assay, FES; conditions: Kinase Concentration 1 nM; 50 nM ULight-labeled substrate, 200 micromolar ATP, 2 hours
Protocol: as §1, §2

[5] = biological target: PYK2 (Homo sapiens, UniProt Q14289); experiment: TR-FRET kinase assay, PYK2; conditions: Kinase Concentration 0.25 nM; 50 nM ULight-labeled substrate, 200 micromolar ATP, 2 hours
Protocol: as §1, §2

[6] = biological target: SRC (Homo sapiens, UniProt P12931); experiment: TR-FRET kinase assay, SRC; conditions: Kinase Concentration 0.5 nM; 50 nM ULight-labeled substrate, 200 micromolar ATP, 2 hours
Protocol: as §1, §2

[7] = biological target: T1, TXK (Homo sapiens, UniProt P42681); experiment: TR-FRET kinase assay, TXK; conditions: Kinase Concentration 3 nM; 50 nM ULight-labeled substrate, 200 micromolar ATP, 2 hours
T1 sequence (P42681 1-527): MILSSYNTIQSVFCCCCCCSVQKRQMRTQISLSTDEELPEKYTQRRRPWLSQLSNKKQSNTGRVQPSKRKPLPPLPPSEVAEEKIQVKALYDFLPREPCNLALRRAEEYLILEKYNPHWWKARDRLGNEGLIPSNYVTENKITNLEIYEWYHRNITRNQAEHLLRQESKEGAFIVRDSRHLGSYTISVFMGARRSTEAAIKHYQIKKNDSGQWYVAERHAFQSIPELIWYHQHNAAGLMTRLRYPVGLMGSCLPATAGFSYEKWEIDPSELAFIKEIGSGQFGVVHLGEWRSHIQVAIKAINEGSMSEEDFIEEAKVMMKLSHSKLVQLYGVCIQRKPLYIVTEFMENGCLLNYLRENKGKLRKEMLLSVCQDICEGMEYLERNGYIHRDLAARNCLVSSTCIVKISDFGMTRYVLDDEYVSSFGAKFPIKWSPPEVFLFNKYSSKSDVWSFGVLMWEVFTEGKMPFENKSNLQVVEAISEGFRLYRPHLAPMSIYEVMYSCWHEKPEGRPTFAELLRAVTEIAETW
Protocol: as §1, §2

[8] = biological target: TYK2 (Homo sapiens, UniProt P29597); experiment: TR-FRET kinase assay, TYK2; conditions: Kinase Concentration 4 nM; 50 nM ULight-labeled substrate, 200 micromolar ATP, 2 hours
Protocol: as §1, §2

[9] = biological target: DGFR [T790M] (Homo sapiens, UniProt P00533, T790M); experiment: TR-FRET kinase assay, DGFR [T790M]; conditions: Kinase Concentration 0.5 nM; 50 nM ULight-labeled substrate, 200 micromolar ATP, 2 hours
Protocol: as §1, §2

[10] = biological target: T2, EphA8 (Homo sapiens, UniProt P29322); experiment: TR-FRET kinase assay, EphA8; conditions: Kinase Concentration 0.25 nM; 50 nM ULight-labeled substrate, 200 micromolar ATP, 2 hours
T2 sequence (P29322 28-1005): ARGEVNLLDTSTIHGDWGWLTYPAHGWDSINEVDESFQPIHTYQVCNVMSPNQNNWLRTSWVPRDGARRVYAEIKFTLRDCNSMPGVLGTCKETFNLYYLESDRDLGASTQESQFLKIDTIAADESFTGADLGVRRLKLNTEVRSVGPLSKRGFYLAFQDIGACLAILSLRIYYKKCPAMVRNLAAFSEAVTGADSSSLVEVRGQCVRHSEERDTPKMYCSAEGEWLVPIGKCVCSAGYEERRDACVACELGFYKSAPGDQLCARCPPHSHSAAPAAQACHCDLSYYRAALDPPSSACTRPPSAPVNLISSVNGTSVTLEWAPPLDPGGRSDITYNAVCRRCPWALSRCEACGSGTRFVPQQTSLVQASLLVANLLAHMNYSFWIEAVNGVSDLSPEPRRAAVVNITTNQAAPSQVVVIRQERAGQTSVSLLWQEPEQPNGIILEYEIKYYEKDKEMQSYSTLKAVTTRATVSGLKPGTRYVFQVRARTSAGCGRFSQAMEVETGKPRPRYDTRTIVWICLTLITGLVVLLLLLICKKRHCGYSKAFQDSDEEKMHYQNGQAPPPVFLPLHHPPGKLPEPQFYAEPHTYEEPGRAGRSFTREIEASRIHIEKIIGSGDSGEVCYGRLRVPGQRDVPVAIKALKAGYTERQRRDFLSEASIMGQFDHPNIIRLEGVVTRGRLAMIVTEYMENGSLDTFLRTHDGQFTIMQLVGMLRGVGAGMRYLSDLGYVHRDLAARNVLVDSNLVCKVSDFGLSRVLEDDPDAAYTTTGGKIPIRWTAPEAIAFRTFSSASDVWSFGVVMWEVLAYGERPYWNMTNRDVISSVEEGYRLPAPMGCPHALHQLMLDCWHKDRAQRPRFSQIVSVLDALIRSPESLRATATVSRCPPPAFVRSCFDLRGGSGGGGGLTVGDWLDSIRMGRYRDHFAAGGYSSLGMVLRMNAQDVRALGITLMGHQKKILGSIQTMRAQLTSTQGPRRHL
Protocol: as §1, §2

[11] = biological target: HER4 (ERBB4) (Homo sapiens, UniProt Q15303); experiment: TR-FRET kinase assay, HER4 (ERBB4); conditions: Kinase Concentration 0.1 nM; 50 nM ULight-labeled substrate, 200 micromolar ATP, 2 hours
Protocol: as §1, §2

[12] = biological target: IRR (Homo sapiens, UniProt P14616); experiment: TR-FRET kinase assay, IRR; conditions: Kinase Concentration 0.5 nM; 50 nM ULight-labeled substrate, 200 micromolar ATP, 2 hours
Protocol: as §1, §2

[13] = biological target: PDGFRa (Homo sapiens, UniProt P16234); experiment: TR-FRET kinase assay, PDGFRa; conditions: Kinase Concentration 0.5 nM; 50 nM ULight-labeled substrate, 200 micromolar ATP, 2 hours
Protocol: as §1, §2

[14] = biological target: TIE2 (Homo sapiens, UniProt Q02763); experiment: TR-FRET kinase assay, TIE2; conditions: Kinase Concentration 0.5 nM; 50 nM ULight-labeled substrate, 200 micromolar ATP, 2 hours
Protocol: as §1, §2

FES, sequence (P07332 whole entry, species assumed): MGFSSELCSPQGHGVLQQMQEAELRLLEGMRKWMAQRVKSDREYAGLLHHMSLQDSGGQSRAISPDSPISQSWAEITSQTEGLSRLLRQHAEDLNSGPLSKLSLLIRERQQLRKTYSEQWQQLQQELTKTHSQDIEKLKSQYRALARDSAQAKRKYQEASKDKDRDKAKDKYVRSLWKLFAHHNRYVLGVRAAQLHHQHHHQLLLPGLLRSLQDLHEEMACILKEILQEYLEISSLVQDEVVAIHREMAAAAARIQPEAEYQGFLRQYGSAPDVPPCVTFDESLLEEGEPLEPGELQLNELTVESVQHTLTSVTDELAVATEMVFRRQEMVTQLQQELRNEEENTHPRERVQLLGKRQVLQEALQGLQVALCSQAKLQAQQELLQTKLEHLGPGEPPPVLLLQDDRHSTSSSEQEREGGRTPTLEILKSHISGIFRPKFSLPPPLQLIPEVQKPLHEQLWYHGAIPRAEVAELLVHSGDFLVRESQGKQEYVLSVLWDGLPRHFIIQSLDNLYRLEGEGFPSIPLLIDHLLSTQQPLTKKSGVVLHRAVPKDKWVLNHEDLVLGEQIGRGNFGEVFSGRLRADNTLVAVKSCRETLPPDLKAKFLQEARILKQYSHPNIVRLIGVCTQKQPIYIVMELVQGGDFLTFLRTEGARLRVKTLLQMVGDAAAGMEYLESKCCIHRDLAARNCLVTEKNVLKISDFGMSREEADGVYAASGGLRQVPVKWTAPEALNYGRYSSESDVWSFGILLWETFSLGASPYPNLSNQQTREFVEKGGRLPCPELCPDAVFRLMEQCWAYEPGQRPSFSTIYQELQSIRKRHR
FER, sequence (P16591 whole entry, species assumed): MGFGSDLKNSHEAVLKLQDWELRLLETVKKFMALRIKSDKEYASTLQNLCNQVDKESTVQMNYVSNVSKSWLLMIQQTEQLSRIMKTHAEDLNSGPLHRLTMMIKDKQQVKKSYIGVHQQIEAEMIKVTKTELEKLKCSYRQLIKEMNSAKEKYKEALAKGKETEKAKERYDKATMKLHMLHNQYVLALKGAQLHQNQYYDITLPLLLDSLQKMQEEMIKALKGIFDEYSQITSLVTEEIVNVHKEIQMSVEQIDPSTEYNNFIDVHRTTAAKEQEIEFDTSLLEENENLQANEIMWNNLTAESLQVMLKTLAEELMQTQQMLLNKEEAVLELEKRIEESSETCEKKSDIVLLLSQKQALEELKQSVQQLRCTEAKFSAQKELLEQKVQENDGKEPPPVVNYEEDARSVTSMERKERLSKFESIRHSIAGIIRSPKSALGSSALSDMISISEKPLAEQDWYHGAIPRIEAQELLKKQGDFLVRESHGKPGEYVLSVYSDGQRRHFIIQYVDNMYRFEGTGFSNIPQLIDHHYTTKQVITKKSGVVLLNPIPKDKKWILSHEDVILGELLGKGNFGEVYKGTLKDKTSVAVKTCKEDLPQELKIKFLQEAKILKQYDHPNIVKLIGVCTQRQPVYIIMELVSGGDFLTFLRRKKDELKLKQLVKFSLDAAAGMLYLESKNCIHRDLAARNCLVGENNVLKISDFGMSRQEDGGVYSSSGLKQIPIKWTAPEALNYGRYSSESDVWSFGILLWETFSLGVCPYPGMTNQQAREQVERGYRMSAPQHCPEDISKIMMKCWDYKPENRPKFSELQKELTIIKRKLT
TIE2, sequence (Q02763 23-1124, species assumed): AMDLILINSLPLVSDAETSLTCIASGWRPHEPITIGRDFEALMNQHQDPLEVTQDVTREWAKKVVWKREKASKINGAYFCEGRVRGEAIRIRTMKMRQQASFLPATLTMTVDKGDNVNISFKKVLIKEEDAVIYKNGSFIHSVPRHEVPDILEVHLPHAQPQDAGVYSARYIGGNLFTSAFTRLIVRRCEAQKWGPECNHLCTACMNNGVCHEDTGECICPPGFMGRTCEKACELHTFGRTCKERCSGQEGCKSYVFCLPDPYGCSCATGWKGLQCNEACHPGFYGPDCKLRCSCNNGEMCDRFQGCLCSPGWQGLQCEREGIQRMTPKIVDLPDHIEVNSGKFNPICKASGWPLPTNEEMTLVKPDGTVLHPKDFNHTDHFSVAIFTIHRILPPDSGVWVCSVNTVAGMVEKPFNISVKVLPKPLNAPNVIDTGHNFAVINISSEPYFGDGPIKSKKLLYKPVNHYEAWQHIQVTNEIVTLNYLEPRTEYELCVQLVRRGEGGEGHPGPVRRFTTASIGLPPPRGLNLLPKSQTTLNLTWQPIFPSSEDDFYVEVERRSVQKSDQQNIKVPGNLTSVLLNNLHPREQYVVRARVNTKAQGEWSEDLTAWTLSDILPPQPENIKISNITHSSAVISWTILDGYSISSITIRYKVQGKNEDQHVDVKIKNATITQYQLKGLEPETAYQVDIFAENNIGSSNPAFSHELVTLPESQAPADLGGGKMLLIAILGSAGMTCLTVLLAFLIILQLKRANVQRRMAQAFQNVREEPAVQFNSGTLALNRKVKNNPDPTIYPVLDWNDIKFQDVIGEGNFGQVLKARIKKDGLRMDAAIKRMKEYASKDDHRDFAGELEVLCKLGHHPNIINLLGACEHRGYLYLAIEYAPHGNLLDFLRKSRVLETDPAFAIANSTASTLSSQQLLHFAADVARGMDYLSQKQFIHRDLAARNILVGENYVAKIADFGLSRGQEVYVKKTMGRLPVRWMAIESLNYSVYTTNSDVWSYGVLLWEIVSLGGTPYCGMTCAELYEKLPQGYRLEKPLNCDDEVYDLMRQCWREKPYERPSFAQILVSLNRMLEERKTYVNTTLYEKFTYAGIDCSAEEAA
TYK2, sequence (P29597 whole entry, species assumed): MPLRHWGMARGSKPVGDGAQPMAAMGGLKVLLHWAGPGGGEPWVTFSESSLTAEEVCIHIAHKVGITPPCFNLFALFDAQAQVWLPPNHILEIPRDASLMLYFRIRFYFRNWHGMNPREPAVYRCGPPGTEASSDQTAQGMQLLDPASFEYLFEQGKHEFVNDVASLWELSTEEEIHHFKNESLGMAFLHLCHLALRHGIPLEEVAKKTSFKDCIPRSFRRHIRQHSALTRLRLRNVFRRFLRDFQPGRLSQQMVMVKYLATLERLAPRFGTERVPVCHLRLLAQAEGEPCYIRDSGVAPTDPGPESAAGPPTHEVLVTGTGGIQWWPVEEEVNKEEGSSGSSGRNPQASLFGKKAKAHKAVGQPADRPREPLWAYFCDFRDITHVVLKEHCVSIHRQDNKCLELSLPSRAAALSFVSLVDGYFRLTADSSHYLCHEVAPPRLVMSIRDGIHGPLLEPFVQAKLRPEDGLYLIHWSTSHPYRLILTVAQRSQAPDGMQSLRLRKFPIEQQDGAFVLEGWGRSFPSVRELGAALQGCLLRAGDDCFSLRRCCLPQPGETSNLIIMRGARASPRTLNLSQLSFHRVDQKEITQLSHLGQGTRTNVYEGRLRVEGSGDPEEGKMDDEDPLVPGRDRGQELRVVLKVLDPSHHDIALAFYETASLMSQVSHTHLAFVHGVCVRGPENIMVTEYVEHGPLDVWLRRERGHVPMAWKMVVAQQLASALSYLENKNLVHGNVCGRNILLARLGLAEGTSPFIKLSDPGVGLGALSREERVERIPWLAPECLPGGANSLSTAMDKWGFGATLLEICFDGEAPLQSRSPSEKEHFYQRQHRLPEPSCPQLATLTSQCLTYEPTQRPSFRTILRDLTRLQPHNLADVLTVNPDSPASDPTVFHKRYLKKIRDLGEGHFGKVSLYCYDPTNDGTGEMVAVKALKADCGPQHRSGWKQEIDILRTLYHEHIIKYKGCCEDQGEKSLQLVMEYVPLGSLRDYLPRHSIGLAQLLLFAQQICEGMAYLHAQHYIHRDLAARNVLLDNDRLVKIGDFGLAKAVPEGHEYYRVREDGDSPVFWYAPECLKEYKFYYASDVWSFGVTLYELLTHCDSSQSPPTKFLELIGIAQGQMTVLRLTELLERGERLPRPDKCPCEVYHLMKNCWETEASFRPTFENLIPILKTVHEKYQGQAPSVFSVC
ARG, sequence (P42684 whole entry): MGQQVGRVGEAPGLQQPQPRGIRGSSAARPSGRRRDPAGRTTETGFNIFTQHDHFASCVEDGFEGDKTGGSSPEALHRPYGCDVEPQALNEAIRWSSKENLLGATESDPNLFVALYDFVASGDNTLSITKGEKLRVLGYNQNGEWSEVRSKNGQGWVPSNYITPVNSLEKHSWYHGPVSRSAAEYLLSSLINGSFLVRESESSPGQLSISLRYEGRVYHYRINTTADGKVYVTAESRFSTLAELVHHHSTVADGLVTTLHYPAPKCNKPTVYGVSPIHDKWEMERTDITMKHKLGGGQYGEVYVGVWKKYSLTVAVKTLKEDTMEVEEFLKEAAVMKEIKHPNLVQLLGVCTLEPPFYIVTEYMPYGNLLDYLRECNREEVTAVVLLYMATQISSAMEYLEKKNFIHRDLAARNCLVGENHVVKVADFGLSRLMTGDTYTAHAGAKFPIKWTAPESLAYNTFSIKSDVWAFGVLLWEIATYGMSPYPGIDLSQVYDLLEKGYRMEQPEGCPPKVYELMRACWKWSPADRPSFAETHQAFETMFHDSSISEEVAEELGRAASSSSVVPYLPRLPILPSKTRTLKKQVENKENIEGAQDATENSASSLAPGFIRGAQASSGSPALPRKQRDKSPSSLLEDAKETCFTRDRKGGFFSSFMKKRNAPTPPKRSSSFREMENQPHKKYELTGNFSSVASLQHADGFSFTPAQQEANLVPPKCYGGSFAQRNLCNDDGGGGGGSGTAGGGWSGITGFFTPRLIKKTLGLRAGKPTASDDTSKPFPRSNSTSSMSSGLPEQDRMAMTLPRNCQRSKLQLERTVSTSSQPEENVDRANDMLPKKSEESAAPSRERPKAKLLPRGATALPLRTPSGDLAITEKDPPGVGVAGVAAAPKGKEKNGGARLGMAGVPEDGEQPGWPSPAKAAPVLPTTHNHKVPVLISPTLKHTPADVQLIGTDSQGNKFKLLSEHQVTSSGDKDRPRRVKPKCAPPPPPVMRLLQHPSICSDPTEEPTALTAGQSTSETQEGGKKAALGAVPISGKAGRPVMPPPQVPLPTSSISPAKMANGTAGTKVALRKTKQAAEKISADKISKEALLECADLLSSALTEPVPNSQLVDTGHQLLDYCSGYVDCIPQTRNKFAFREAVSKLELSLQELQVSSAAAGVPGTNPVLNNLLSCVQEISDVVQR

C AYE AYE AYE K EYA EYA EYA K AYA EYE R (CAYEAYEAYEKEYAEYAEYAKAYAEYER; tyrosine kinase substrate peptide) [BRB1]
Signal to Noise ratio with BRB1 Peptide [1]: 4.8 | Signal to Noise ratio with BRB1 Peptide [2]: 10.6 | Signal to Noise ratio with BRB1 Peptide [3]: 31.0 | Signal to Noise ratio with BRB1 Peptide [4]: 24.9 | Signal to Noise ratio with BRB1 Peptide [5]: 2.9 | Signal to Noise ratio with BRB1 Peptide [6]: 31.7 | Signal to Noise ratio with BRB1 Peptide [7]: 5.9 | Signal to Noise ratio with BRB1 Peptide [8]: 7.3 | Signal to Noise ratio with BRB1 Peptide [9]: 3.3 | Signal to Noise ratio with BRB1 Peptide [10]: 32.3 | Signal to Noise ratio with BRB1 Peptide [11]: 3.1 | Signal to Noise ratio with BRB1 Peptide [12]: 19.2 | Signal to Noise ratio with BRB1 Peptide [13]: 8.0 | Signal to Noise ratio with BRB1 Peptide [14]: 17.7
